Test results reported in the supplement of paper PMC12636428.

Test system: Saccharomyces cerevisiae
Experiment: transcriptional activation domain activity (GFP:mCherry ratio, weighted mean of sorted bins, harmonized to initial dataset scale) (arbitrary fluorescence ratio units); higher = stronger transcriptional activation
Conditions: beta-estradiol 1 µM; induction time 4 h
Procedure, shortened: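 The listed activation activity is a read-weighted mean of bin median fluorescence, averaged across barcodes and linearly mapped onto the initial dataset scale. Barcoded tiles, fused to an estradiol-inducible synthetic transcription factor, were integrated at URA3 in yeast diploids bearing a GFP reporter. Cells were held 4 hours at 30 °C in SC with 1 uM beta-estradiol, sorted into 8 GFP:mCherry bins, and sequenced, and tiles with fewer than 50 reads were excluded.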

Sequence: ATVNLVINFTEMTNLMRALLILYRLKERVLSMAKRLELAELRKSKSINVNLTL
- transcriptional activation domain activity: 60400

Sequence: MAEKRATSTAPGPSTSLQRGKACLRCRKRKMRCDGSKPACQQCVRAKKADGCE
- transcriptional activation domain activity: 21500

Sequence: ALKVVVRVKMFGIGPLIYCSCLFVLLFSVVLLLLLAALYLMLQIYAALVVSAV
- transcriptional activation domain activity: 47100

Sequence: MSRQPVRAIFLYDILLFFLSGRSIDFVLIFSTWPFFFSFFLSFSLPPYFYFIL
- transcriptional activation domain activity: 71500

Sequence: NLSLQEIVGILLRANAFRPMCKNCEHLRDKVGAHIVDCACFEYWLQLGLFIAP
- transcriptional activation domain activity: 47000

Sequence: VFLFLLTYFTIDIGLTNLPPLVIITVYLPHPPPLPDILLYWVLFLCCAVWGAV
- transcriptional activation domain activity: 39800

Sequence: SHLDRRSNQFCRVQFCYKHLLLLWFFLLLFLAYPCQLLCIIIFPNLVSSLCRF
- transcriptional activation domain activity: 31200

Sequence: MMYDSLSSLFVSTLFFSLYEFLCLSCPLCFNYPFQVGFCTLFLFFHPLFAFMQ
- transcriptional activation domain activity: 34500

Sequence: SKTAGPSSNSPSQTGKDDKAAASSSTSAGGAPAATGRVIAGLAAGVAMGLAAA
- transcriptional activation domain activity: 37700

Sequence: ERVGERRGSGKTERQRAHDAPEREGARGEKGRRARGTNGEGRGGEEREVRQEG
- transcriptional activation domain activity: 25600

Sequence: AGDAFGAVESVKSASDIMSPVSGEVVEANVALKDKPALINRSPEEEGWIVRVR
- transcriptional activation domain activity: 52900

Sequence: SGDADEDGNGHGTHCSGTVAGKKYGVAKKAHVYAVKVLRSNGSGTMSDVVKGV
- transcriptional activation domain activity: 42000

Sequence: IIFCLGRYGLICSLMYTNTVLIFLPPSRMSAQASLTCQTFASILVFCIVLSAI
- transcriptional activation domain activity: 73300

Sequence: MDFNGVVFCPVYISLLPLFFYPYNIYHFNDSLMRPNEISVAVYLLLILLNFQD
- transcriptional activation domain activity: 51000

Sequence: GGLCAANFVAILITASVNIWTLLGNVYYSPLVNRCVCVARPEWMWTIWIFPLL
- transcriptional activation domain activity: 46700

Sequence: MLLFIFWRLLYFFILGSLLRAQSRRKWLVRWCREHGFGPNPRRPRSGWVTFWV
- transcriptional activation domain activity: 59600

Sequence: MCPVLFCFYSPMILIFFFFSSFSYLLYIHTILSWFVCLLFVCYYECFLLLSFS
- transcriptional activation domain activity: 44700

Sequence: REGHLFSCIYIMYCQILFRKVGWSSVFDCAFHVLLAMSAAGNFLVVGAIRCKC
- transcriptional activation domain activity: 37300

Sequence: GEDEEEGEEEEEEDDDDEEEKDHDEDEGDQGDGASDDADAAAQERPGKPRPGR
- transcriptional activation domain activity: 8020

Sequence: SGSSKPRRAEDGRKSSRRDHSREREGSNGGHHRSRSGRDGSASPKRSSSSRRR
- transcriptional activation domain activity: 16800

Sequence: MQNKIVQALNWVCVDLNPPLTSFYFSPFFSFFPTLSSCFNTPLFFFLFSSFFF
- transcriptional activation domain activity: 61800

Sequence: SDAAVELCVAAAPRNGESNKAVVQVLSHVSTHHLHLESLLTCLSQALKIPKMD
- transcriptional activation domain activity: 42000

Sequence: LFVFLLFVLFLLVLFMLVLLLLFLPLLLLLPLLLWILWILILRLFFSFLDISD
- transcriptional activation domain activity: 36900

Sequence: VQFVLDLIVMVGVAGYNTVAQLYFPQLPHHKCSNSAATGSFGLFLICCYLVLF
- transcriptional activation domain activity: 53700

Sequence: FTMLIGRKRPDVSTCVLIAVVISQCLFYVVVFFVKILGLVKYFLLFSSLADKL
- transcriptional activation domain activity: 56300

Sequence: DAPAQPEPADDGEEAEEVDEPKGKKGKGGGKKGGGKGKGGKGKEKKADKAAAE
- transcriptional activation domain activity: 29400

Sequence: QGDYMCQYRGGLIGKHFKTLLQIMAFAVQDLVPPDVLEAWLILGRLTVLLWHM
- transcriptional activation domain activity: 82000

Sequence: MAVNDGFLFVFSCLFFLIFVTLLLTFPFLFFGSSHFHMGNPPVFPLLILISCY
- transcriptional activation domain activity: 47200

Sequence: GQRPFGQVLNFFSCFLFIAFSCCHGPSLVNLIVWAAFFAQSTLFLIYLLRCIC
- transcriptional activation domain activity: 43800

Sequence: WDGGPTSKLTHVLLTYRQSILVTVYSHLLLLDHSSQVWWRWMNIFFTLVIWSI
- transcriptional activation domain activity: 71000

Sequence: RQESSPRLPSPSHTQQRERNQTPCAARSSSSSPRRPRPQPQPSTSAPSSPASP
- transcriptional activation domain activity: 29400

Sequence: RCFSFLFLGCHYDTDWGFGFCCLFVINCRFNFCIFFLSLFSSFFVLVSFFLLY
- transcriptional activation domain activity: 58800

Sequence: AAAGAREVKHPAAKKQKKIEGGSETKDEEEKSSSKKRQKSESKSKSKSKSKSK
- transcriptional activation domain activity: 28300

Sequence: MKVDLNKHPSCRRIIWVGYTKICTFLIPDKLLVYLSLTTQARRIAWREKLTLF
- transcriptional activation domain activity: 59600

Sequence: EREEEEEEEEEEEEVVVVAKAKANEREREEEAEEAEEVEEVVAKSRKAKGKAK
- transcriptional activation domain activity: 16600

Sequence: NLDFDFALPQTATAPDAKTVLPIPELDDAVVESFFSSSTDSTPMFEYENLEDN
- transcriptional activation domain activity: 91700

Sequence: AMDGVAQLHALLGGCHTRLAGLVFSTFEAAVLLVYLCVDPMFPRDCPHQHVPP
- transcriptional activation domain activity: 57400

Sequence: QARQSKEPAMSQKDLATKVNEKQSVINDYESGRAVPNQQVLSKLERALGVKLR
- transcriptional activation domain activity: 36800

Sequence: SGFPSVGFNFFLFFSMMQPAMFLVSLFFQSLFFLCLNTCVCFFGFNFFFLVHW
- transcriptional activation domain activity: 34800

Sequence: IARSRNLPLDVVMYLGSDEENDMMVDTLLLLHDYISKVRSLILRVNFMTLSCA
- transcriptional activation domain activity: 66700

Sequence: MIAVFFYYFLLFFYITCEFPVLCCGSLFFFFFFFFCFCDIYCISFCLLAHYHY
- transcriptional activation domain activity: 44300

Sequence: MFCLRSWLPLLFIPTNASPAFIFLFFVCTYFLNRPCVYCSFLLLILFATSCYW
- transcriptional activation domain activity: 36100

Sequence: AAARAPHVAPAPPDARPKSKKRKSSSPDDGRAPAKSRRLSPARAAPAKPKHRR
- transcriptional activation domain activity: 12300

Sequence: GNGKNKHTQRHRGGEKRNLPPSKKQRRKKKSRRIRHRKAQPHPDDEQLQDDKG
- transcriptional activation domain activity: 17000

Sequence: SPMGSGSDEEEEERRRKRRKEKKRSKKSKRERSGSLSGSGSEGGGGKRKRHQD
- transcriptional activation domain activity: 36000

Sequence: FNNDGWDTSLPIDFDFDEFNTETTDFDDFLKLLGDNSPSKEQKSLSYSPTATG
- transcriptional activation domain activity: 162000

Sequence: MLRLLFWYLLIFVCLFCSSSPSYLSIFCLFFLCLIFIPSSSYILLPFLFLTLY
- transcriptional activation domain activity: 37500

Sequence: ALRHRYIIGTSLCRLFIPLYFFACPYNTLFQDPNPLVWILLLYVSAQALLLLL
- transcriptional activation domain activity: 63900

Sequence: ALSSASSALSPLSGDPITTTETNKSYPLDSEQSLLEPDKTEEDAINQSKESNM
- transcriptional activation domain activity: 15300

Sequence: AASPEEVIAPKSKRQPRRNTQAVSADPASLTPPADTKPKRSRAPRKAKVTIAE
- transcriptional activation domain activity: 13300

Sequence: SPQRSTSSTSSKAAAAPKAAAQPKQQQQKPAAPSKPAAAAAAPKTAPKPAAAS
- transcriptional activation domain activity: 26000

Sequence: MLFSLYLFFYFLFFVCDGLPYFWFYKHTRFSVNYVSSSPPFCWSLFFLFFYFF
- transcriptional activation domain activity: 62000

Sequence: KYNLALILAGFFRFIPWISVLLLLLLSLSPRARSLFPWPISSILLLYTLADTI
- transcriptional activation domain activity: 39400

Sequence: LYLLIFFPVLLWRYLCIGLDSVLCCHIGFHFPYFMCYFFAIMSVSRSFFYSCI
- transcriptional activation domain activity: 50700

Sequence: MCLLCHATLFSSCPYFSIFLVFSFFSFFSLFFFTSFLSLLLFMSLLPTYYHLY
- transcriptional activation domain activity: 43500
